Laboratory results as given in US20090175881A1 (SCHERING, published 2009).

Legend:
rhIL-17A [1] = biological target: T1, rhIL-17A (human, UniProt Q16552 24-155); test: cell-based or functional assay
T1 sequence: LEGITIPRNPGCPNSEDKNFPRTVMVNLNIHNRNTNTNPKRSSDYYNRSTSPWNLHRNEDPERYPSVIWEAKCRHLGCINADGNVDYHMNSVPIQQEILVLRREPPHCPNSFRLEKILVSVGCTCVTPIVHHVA

cynomolgus monkey IL-17A [2] = biological target: T2, cynomolgus monkey IL-17A (cynomolgus monkey, UniProt A0A2K5TTB0 24-155); test: cell-based or functional assay
T2 sequence: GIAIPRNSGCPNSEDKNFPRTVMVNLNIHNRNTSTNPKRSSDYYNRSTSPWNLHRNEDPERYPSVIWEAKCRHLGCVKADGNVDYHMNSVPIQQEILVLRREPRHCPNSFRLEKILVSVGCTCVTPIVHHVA

rhIL-17A [3] = biological target: T1, rhIL-17A; test: cell-based or functional assay; remark: listed apart in the source
rhIL-17A [4] = biological target: T1, rhIL-17A; test: indirect ELISA, rhIL-17A coated on plate
Method: Binding of anti-human-IL-17A monoclonal antibodies to rhIL-17A is assessed using an indirect enzyme-linked immunosorbent assay (ELISA). Briefly, a fixed concentration of rhIL-17A is bound directly to the wells of a microtiter plate. The monoclonal anti-IL-17A to be assayed is then is added to the rhIL-17A coated plate, where the antibody is captured and quantitated.
A 96-well U-bottom MaxiSorp plate is coated with 50 μl/well of rhIL-17A (0.5 μg/ml) in carbonate coating buffer (the “assay plate”). Carbonate coating buffer is 2.9 g/L NaHFCO₃, 1.6 g/L Na₂CO₃, pH 9.4. Plates are incubated covered at 4° C. overnight. Monoclonal antibodies to be screened are serially diluted in duplicate across the rows of a V-bottom plate such that the final volume is 60 μl/well (the “serial dilution plate”). The assay plate is washed three times with PBS-Tween in a plate washer (SkanWasher, Molecular Devices, Sunnyvale, Calif., USA) and blotted dry. PBS-Tween is obtained by adding 0.5 ml/L Tween 20 to 1×PBS. Fifty μl from each well of the serial dilution plate is transferred to the assay plate and incubated at 25° C. for one hour. Secondary antibodies are diluted 1/2000 in diluent (PBS-BSA-Tween, which is PBS-Tween with 1 g/L BSA). The secondary antibody for rat monoclonal antibodies is goat anti-rat IgG (H+L)—HRP (Jackson ImmunoResearch Laboratories, Inc., West Grove, Pa., USA). The secondary antibody for chimeric and humanized monoclonal antibodies is F(ab′)₂ goat anti-human IgG Fcγ—HRP (Jackson ImmunoResearch Laboratories, Inc.). The assay plate is washed as before. Diluted secondary antibodies (100 μl/well) are added to the appropriate wells in the assay plate, and the plate is incubated at 25° C. for 45 minutes. The assay plate is washed as before.

FLAG-huIL-17A [5] = biological target: T3, FLAG-huIL-17A (human, UniProt Q16552 24-155); test: ECL (Origen), antibody titrated against biotinylated antigen; area under the curve
T3 construct: also called FLAG-huL-17A; FLAG-IL-17A
T3 sequence: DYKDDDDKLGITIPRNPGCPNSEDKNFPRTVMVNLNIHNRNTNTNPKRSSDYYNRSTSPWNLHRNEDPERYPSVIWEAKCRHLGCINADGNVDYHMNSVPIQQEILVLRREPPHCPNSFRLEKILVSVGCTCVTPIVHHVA
From the text: (§1) Origen electrochemiluminescence technology, developed by IGEN, Inc. (Gaithersburg, Md., USA), and was employed to measure the binding of rat anti-human IL-17A antibodies (and one chimeric antibody) to FLAG-huL-17A. […] Electrochemiluminescence technology uses a stable ruthenium metal chelate (Ori-TAG) which, in the presence of tripropylamine (TPA), generates electrochemiluminescence upon voltage application. Paramagnetic beads, microns in diameter, act as the solid phase and facilitate rapid assay kinetics. The bead/complex is channeled through a flow cell and captured at an electrode by magnetic application. Voltage is applied and resulting electrochemiluminescence is measured.
(§2) ECL assays were performed as follows. Three-fold serial dilutions of anti-human IL-17A mAbs in 50 μl of the assay buffer were made in a 96-well microtiter plate to give 1-3 μg/ml final concentration in the first well. […] Finally 50 μl of Origen Streptavidin-Dynabeads at 0.1 mg/ml was added to each well. […] GraphPad Prism software (GraphPad Software, San Diego, Calif., USA) was used to plot the data and calculate area under the curve, which is a rough measure of binding.

rhIL-17A [6] = biological target: T1, rhIL-17A; test: cell-based or functional assay; remark: listed apart in the source
rhIL-17A [7] = biological target: T1, rhIL-17A; test: cell-based or functional assay; remark: listed apart in the source
rhIL-17A [8] = biological target: T1, rhIL-17A; test: KinExA, solution equilibrium
Method: (§3) The equilibrium dissociation constants (Kd) for anti human IL-17A antibodies were determined using the KinExA 3000 instrument (Sapidyne Instruments Inc., Boise, Id., USA). KinExA uses the principle of the Kinetic Exclusion Assay method based on measuring the concentration of uncomplexed antibody in a mixture of antibody, antigen and antibody-antigen complex. […] The concentration of free antibody is measured by exposing the mixture to a solid-phase immobilized antigen for a very brief period of time. l practice, this is accomplished by flowing the solution phase antigen-antibody mixture past antigen-coated particles trapped in a flow cell. Data generated by the instrument are analyzed using custom software.
(§4) IL-17A was derived from either human (“hu”), cynomolgus monkey (“cyno”), or mouse (“mu”). IL-17A from the same species was used in both the immobilized and solution phases for each KinExA determination. Poly(methyl-methacrylate) (PMMA) particles (98 micron) were coated with human, cyno or mouse IL-17A according to Sapidyne “Protocol for coating PMMA particles with biotinylated ligands having short or nonexistent linker arms.” All experimental procedures were done according to the KinExA 3000 manual. All runs were done in duplicate.
(§5) Two-fold serial dilutions of the antigen were prepared and mixed with the antibody at constant concentration. The mixture was incubated for 2 hours at 25° C. to equilibrate.

rhIL-17A [9] = biological target: T1, rhIL-17A; test: sandwich ELISA, IL-17A captured on rat 12E6, antibody titrated
Method: Binding of anti-human-IL-17A monoclonal antibodies to rhIL-17A is assessed using an ELISA as follows. Briefly, a capture antibody is bound to the wells of a microtiter plate, after which a fixed concentration of rhIL-17A is added. The monoclonal anti-IL-17A to be assayed is then titrated versus the bound rhIL-17A on the plate to determine the concentration of antibody needed to achieve half-maximal binding. A more detailed protocol follows.
A 96-well microtiter plate is coated with 100 μl/well of capture antibody (rat anti-hIL-17A 12E6, 0.5 μg/ml) in carbonate coating buffer pH 9.5 (the “assay plate”). Plates are incubated covered at 4° C. for 24 to 48 hours. The assay plate is washed three times in a plate washer (SkanWasher, Molecular Devices, Sunnyvale, Calif., USA) and blotted dry. The plate is then blocked with 200 μl/well of ELISA assay buffer (20 mM Tris-HCl, 0.15 M NaCl, pH7.4, 0.5% BSA, 0.05% Tween-20, SM EDTA) for one hour at 25° C. on an orbital shaker. The plate is washed, and 100 μl/well of either adenovirus-derived rhIL-17A or E. coli-derived human IL-17 (IL-17A) (R&D Systems, Minneapolis, Minn., USA) (0.1 g/ml) is added in ELISA assay buffer and incubated for 2 hours at 25° C. on an orbital shaker. […] Plates are incubated for 1.5 hours at 25° C. on an orbital shaker. Plates are washed and 100 μl/well secondary antibody (F(ab′)₂ goat anti-human kappa light chain—HRP, 1:20,000 dilution, BioSource, Carlsbad, Calif., USA) is added, except for assay blank wells. Plates are washed twice (i.e. two cycles of 3 washes per cycle) with plate rotation between cycles. TMB substrate (Kirkegaard & Perry Laboratories, Gaithersburg, Md., USA) is added at 100 μl/well and incubated 3-5 minutes on an orbital shaker. Stop solution is added (100 μl/well) and the plate is read for absorbance at 450-570 um on a plate reader (Versamax, Molecular Devices, Sunnyvale, Calif., USA).

FLAG-huIL-17A [10] = biological target: T3, FLAG-huIL-17A; test: KinExA, solution equilibrium
Method: as §3, §4, §5

cynomolgus monkey IL-17A [11] = biological target: T2, cynomolgus monkey IL-17A; test: KinExA, solution equilibrium
Method: as §3, §4, §5

cynomolgus monkey IL-17A [12] = biological target: T2, cynomolgus monkey IL-17A; test: ECL (Origen); area under the curve
From the text: as §1, §2

Binder | IC50, synoviocyte IL-6 production, rhIL-17A (30 ng/ml) (rhIL-17A [6]) [µg/mL] | IC50, synoviocyte IL-8 production, rhIL-17A (30 ng/ml) (rhIL-17A [7]) [µg/mL] | EC50 (rhIL-17A [9]) [nM] | further results
rat 4C3 (antibody, V domains shown) VH: QVELRESGPGLVQPSQTLSLTCTVSGFSLPSHSVSWIRQPPGKGLEWMGIIWNNGGTDYNSAFKSRLTISRDTSKSQVFLKMNSLQTEDTAMYFCARNMYITDYYYENYFMDAWGQGASVTVSS VL: DIVMTQSPSSLAVSVGETVTLNCKSSQSLLFSENQKNYLAWYQHKSGQSPKLLVYWTSTRQSGVPDRFMGSGSGTDFTLTISSVQAEDLAIYYCQQSYYTPYTFGAGTKLELKR | – | – | – | IC50, inhibition of IL-6 production in NHDF cells, rhIL-17A (rhIL-17A [1]): 0.5 nM; IC50, inhibition of IL-6 production in NHDF cells, cyno IL-17A (cynomolgus monkey IL-17A [2]): 0.2 nM
chimeric 16C10 (antibody, human IgG1, kappa, V domains shown, also called chimeric 16C10C) VH: QVELRESGPGLVQPSQTLSLTCTVSGFSLPSHSVSWIRQPPGKGLEWMGIIWNNGGTDYNSAFKSRLTISRDTSKSQVFLKMNSLQTEDTAMYFCARNMYITDYYYENYFMDAWGQGASVTVSS VL: DIVMTQSPSSLAVSIGETVTLNCKSSQSLLFSENQKNYLAWYQHKSGQSPKLLVYWTSTRQSGVPDRFMGSGSGTDFTLTISSVQAEDLAIYYCQQSYYTPYTFGAGTKLELKR | – | – | – | IC50, Ba/F3 hIL-17Rc-mGCSFR proliferation assay, IL-17A at 100 pM (rhIL-17A [3]): 29 pM; EC50 (rhIL-17A [4]): 0.157 nM; Area Under Peak (FLAG-huIL-17A [5]): 346000
hu 16C10 VH M96A (antibody, human IgG1, V domains shown, Variant of hu 16C10 wt; Human IgG1/kappa; also called hu16C10 (M96A)) VH: QVQLQESGPGLVKPSETLSLTCTVSGFSLPSHSVSWIRQPPGKGLEWIGIIWNNGGTDYNSAFKSRVTISVDTSKNQFSLKLSSVTAADTAVYYCARNAYITDYYYENYFMDAWGQGTLVTVSS VL: DIVMTQSPLSLPVTPGEPASISCKSSQSLLFSENQKNYLAWYLQKPGQSPQLLIYWTSTRQSGVPDRFSGSGSGTDFTLKISRVEAEDVGVYYCQQSYYTPYTFGQGTKVEIKR | 0.06 | 0.025 | 0.06 | Kd (rhIL-17A [8]): 0.0099 nM
hu 16C10 Fab (Fab, V domains shown, also called Fab fragment of hu 16C10) VH: QVQLQESGPGLVKPSETLSLTCTVSGFSLPSHSVSWIRQPPGKGLEWIGIIWNQGGTDYNSAFKSRVTISVDTSKNQFSLKLSSVTAADTAVYYCARNAYITDYYYENYFMDAWGQGTLVTVSS VL: DIVMTQSPLSLPVTPGEPASISCKSSQSLLFSENQKNYLAWYLQKPGQSPQLLIYWTSTRQSGVPDRFSGSGSGTDFTLKISRVEAEDVGVYYCQQSYYTPYTFGQGTKVEIKR | – | – | – | Kd (rhIL-17A [8]): 0.0161 nM
hu 16C10 VH N54Q (antibody, human IgG1, V domains shown, Variant of hu 16C10 wt; Human IgG1/kappa; also called hu16C10 (N54Q)) VH: QVQLQESGPGLVKPSETLSLTCTVSGFSLPSHSVSWIRQPPGKGLEWIGIIWNQGGTDYNSAFKSRVTISVDTSKNQFSLKLSSVTAADTAVYYCARNMYITDYYYENYFMDAWGQGTLVTVSS VL: DIVMTQSPLSLPVTPGEPASISCKSSQSLLFSENQKNYLAWYLQKPGQSPQLLIYWTSTRQSGVPDRFSGSGSGTDFTLKISRVEAEDVGVYYCQQSYYTPYTFGQGTKVEIKR | 0.06 | 0.025 | 0.065 | Kd (rhIL-17A [8]): 0.007 nM
hu 16C10 VH N60A (antibody, human IgG1, V domains shown, Variant of hu 16C10 wt; Human IgG1/kappa) VH: QVQLQESGPGLVKPSETLSLTCTVSGFSLPSHSVSWIRQPPGKGLEWIGIIWNNGGTDYASAFKSRVTISVDTSKNQFSLKLSSVTAADTAVYYCARNMYITDYYYENYFMDAWGQGTLVTVSS VL: DIVMTQSPLSLPVTPGEPASISCKSSQSLLFSENQKNYLAWYLQKPGQSPQLLIYWTSTRQSGVPDRFSGSGSGTDFTLKISRVEAEDVGVYYCQQSYYTPYTFGQGTKVEIKR | – | – | 0.063 | –
hu 16C10 VH M100hF (antibody, human IgG1, V domains shown, Variant of hu 16C10 wt; Human IgG1/kappa; also called hu16C10 (M100hF)) VH: QVQLQESGPGLVKPSETLSLTCTVSGFSLPSHSVSWIRQPPGKGLEWIGIIWNNGGTDYNSAFKSRVTISVDTSKNQFSLKLSSVTAADTAVYYCARNMYITDYYYENYFFDAWGQGTLVTVSS VL: DIVMTQSPLSLPVTPGEPASISCKSSQSLLFSENQKNYLAWYLQKPGQSPQLLIYWTSTRQSGVPDRFSGSGSGTDFTLKISRVEAEDVGVYYCQQSYYTPYTFGQGTKVEIKR | 0.07 | 0.05 | 0.049 | –
hu 16C10 VH M96F (antibody, human IgG1, V domains shown, Variant of hu 16C10 wt; Human IgG1/kappa) VH: QVQLQESGPGLVKPSETLSLTCTVSGFSLPSHSVSWIRQPPGKGLEWIGIIWNNGGTDYNSAFKSRVTISVDTSKNQFSLKLSSVTAADTAVYYCARNFYITDYYYENYFMDAWGQGTLVTVSS VL: DIVMTQSPLSLPVTPGEPASISCKSSQSLLFSENQKNYLAWYLQKPGQSPQLLIYWTSTRQSGVPDRFSGSGSGTDFTLKISRVEAEDVGVYYCQQSYYTPYTFGQGTKVEIKR | – | – | 0.125 | –
hu 16C10 VH M96L (antibody, human IgG1, V domains shown, Variant of hu 16C10 wt; Human IgG1/kappa) VH: QVQLQESGPGLVKPSETLSLTCTVSGFSLPSHSVSWIRQPPGKGLEWIGIIWNNGGTDYNSAFKSRVTISVDTSKNQFSLKLSSVTAADTAVYYCARNLYITDYYYENYFMDAWGQGTLVTVSS VL: DIVMTQSPLSLPVTPGEPASISCKSSQSLLFSENQKNYLAWYLQKPGQSPQLLIYWTSTRQSGVPDRFSGSGSGTDFTLKISRVEAEDVGVYYCQQSYYTPYTFGQGTKVEIKR | – | – | 0.066 | –
hu 16C10 VH N54A (antibody, human IgG1, V domains shown, Variant of hu 16C10 wt; Human IgG1/kappa; also called hu16C10 (N54A)) VH: QVQLQESGPGLVKPSETLSLTCTVSGFSLPSHSVSWIRQPPGKGLEWIGIIWNAGGTDYNSAFKSRVTISVDTSKNQFSLKLSSVTAADTAVYYCARNMYITDYYYENYFMDAWGQGTLVTVSS VL: DIVMTQSPLSLPVTPGEPASISCKSSQSLLFSENQKNYLAWYLQKPGQSPQLLIYWTSTRQSGVPDRFSGSGSGTDFTLKISRVEAEDVGVYYCQQSYYTPYTFGQGTKVEIKR | 0.06 | 0.025 | 0.075 | Kd (rhIL-17A [8]): 0.0108 nM
hu 16C10 VH M96K (antibody, human IgG1, V domains shown, Variant of hu 16C10 wt; Human IgG1/kappa; also called hu16C10 (M96K)) VH: QVQLQESGPGLVKPSETLSLTCTVSGFSLPSHSVSWIRQPPGKGLEWIGIIWNNGGTDYNSAFKSRVTISVDTSKNQFSLKLSSVTAADTAVYYCARNKYITDYYYENYFMDAWGQGTLVTVSS VL: DIVMTQSPLSLPVTPGEPASISCKSSQSLLFSENQKNYLAWYLQKPGQSPQLLIYWTSTRQSGVPDRFSGSGSGTDFTLKISRVEAEDVGVYYCQQSYYTPYTFGQGTKVEIKR | 0.06 | 0.025 | 0.068 | –
hu 16C10 VH N60Q (antibody, human IgG1, V domains shown, Variant of hu 16C10 wt; Human IgG1/kappa) VH: QVQLQESGPGLVKPSETLSLTCTVSGFSLPSHSVSWIRQPPGKGLEWIGIIWNNGGTDYQSAFKSRVTISVDTSKNQFSLKLSSVTAADTAVYYCARNMYITDYYYENYFMDAWGQGTLVTVSS VL: DIVMTQSPLSLPVTPGEPASISCKSSQSLLFSENQKNYLAWYLQKPGQSPQLLIYWTSTRQSGVPDRFSGSGSGTDFTLKISRVEAEDVGVYYCQQSYYTPYTFGQGTKVEIKR | – | – | 0.074 | –
hu 16C10 VH M100hL (antibody, human IgG1, V domains shown, Variant of hu 16C10 wt; Human IgG1/kappa) VH: QVQLQESGPGLVKPSETLSLTCTVSGFSLPSHSVSWIRQPPGKGLEWIGIIWNNGGTDYNSAFKSRVTISVDTSKNQFSLKLSSVTAADTAVYYCARNMYITDYYYENYFLDAWGQGTLVTVSS VL: DIVMTQSPLSLPVTPGEPASISCKSSQSLLFSENQKNYLAWYLQKPGQSPQLLIYWTSTRQSGVPDRFSGSGSGTDFTLKISRVEAEDVGVYYCQQSYYTPYTFGQGTKVEIKR | – | – | 0.053 | –
rat 12E6 (antibody, V domains shown) VH: EVQLEESGGGLVQPGRSLKLSCAASGFTFRDYYMVWVRQAPKKGLEWVASISYEGSSIYYGESVKGRFTISRDNAKSTLYLQMNSLRSEDTATYYCARHGFNPFDYWGRGVMVTVSS VL: DIQMTQSPSSLSASLGDRVTITCRTSQDIGNYLSWFQQKPGKSPRLMIYGASNLEDGVPSRFSGSRSGSDYSLTISSLESEDTAIYYCLQYDKYPNTFGAGTKLELKR | – | – | – | IC50, inhibition of IL-6 production in NHDF cells, rhIL-17A (rhIL-17A [1]): > 70 nM; IC50, inhibition of IL-6 production in NHDF cells, cyno IL-17A (cynomolgus monkey IL-17A [2]): > 70 nM
rat 30C10 (antibody, V domains shown, Parental rat monoclonal antibody (hybridoma PTA-7739); also called 30C10C) VH: EVQLVESGGGLVQPGRSQKLSCVVSGFTFNNYWMTWIRQAPGKGLEWVASVSNTGSSTYYPASVKGRFTISRDNAKSTLYLQMNSLRSEDTATYYCTREGAYYLDYWGQGVMVTVSS VL: DIVMTQSPSSLAVSPGETVTINCKSSQSLFWSESHMNYLAWYQQKPGQSPKLLIYYASTRQSGVPDRFIGSGSGTDFTLTISGVQAEDLAVYYCHHHYDSHTFGAGTKLELKR | – | – | – | IC50, inhibition of IL-6 production in NHDF cells, rhIL-17A (rhIL-17A [1]): 0.5 nM; IC50, inhibition of IL-6 production in NHDF cells, cyno IL-17A (cynomolgus monkey IL-17A [2]): 0.2 nM; Kd (FLAG-huIL-17A [10]): 0.011 nM; Kd (cynomolgus monkey IL-17A [11]): 0.0326 nM; Area Under Peak (cynomolgus monkey IL-17A [12]): 124000; Area Under Peak (FLAG-huIL-17A [5]): 312000
